Molecular target: CD66c receptor (human (patients' ileal enterocytes)) (UniProt P40199)
Assay: cell-based or functional assay

Sequence of UniProt P40199 (P40199 35-320): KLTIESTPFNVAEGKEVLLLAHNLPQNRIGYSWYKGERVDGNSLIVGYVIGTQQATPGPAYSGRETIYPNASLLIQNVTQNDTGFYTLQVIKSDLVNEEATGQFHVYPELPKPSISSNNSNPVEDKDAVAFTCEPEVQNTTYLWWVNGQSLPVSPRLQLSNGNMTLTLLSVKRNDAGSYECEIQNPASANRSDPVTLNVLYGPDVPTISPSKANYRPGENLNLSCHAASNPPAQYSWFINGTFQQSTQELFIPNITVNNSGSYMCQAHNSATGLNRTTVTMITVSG

type 1 pili (adhesin FimH) of the E. coli AIEC strain LF82
Adhesion to the enterocytes, no antibody (adhesion index), patient F (bacteria adhering per enterocyte): 1.45 | Adhesion to the enterocytes, no antibody (adhesion index), patient G (bacteria adhering per enterocyte): 1.15 | Adhesion to the enterocytes, no antibody (adhesion index), patient H (bacteria adhering per enterocyte): 1.02 | Adhesion to the enterocytes, no antibody (adhesion index), patient I (bacteria adhering per enterocyte): 1.28
